# Laboratory results as given in US10648979B2, “Molecular probes for detecting gram-negative bacteria in vitro and in vivo” (priority 2014, dated 2020).
# Read-outs that look alike come from different tables or passages of the source. Bridge positions count the residues as written; N and C are the ends. Square brackets hold non-standard residues; d marks the D form. Peptide text beside a SMILES is read from it. * marks the point of attachment. ξ: configuration not given here. X1 = CN(C)c1ccc2c(c1)Oc1cc(N(C)C)ccc1C21OC(=O)c2ccc(C(=O)*)cc21; MethylRed = CN(C)c1ccc(/N=N/c2ccccc2C(=O)*)cc1; NBD = O=[N+]([O-])c1ccc(*)c2nonc12; dDab = NCC[C@@H](N)C(=O)O; Dab = NCC[C@H](N)C(=O)O; AEEA = NCCOCCOCC(=O)O; ξDab = NCCC(N)C(=O)O; ξK = NCCCCC(N)C(=O)O; ξV = CC(C)C(N)C(=O)O; ξP = O=C(O)C1CCCN1; ξA = CC(N)C(=O)O
# Assays:
# [1] = tested on: Methicillin sensitive Staphylococcus aureus (MSSA); assay: Elastase dependant bacterial labelling in co-culture of bacteria and isolated human neutrophils (confocal); format: cell-based
# Source text: FIG. 2A: Elastase dependant bacterial labelling scheme.
# FIG. 2B: Elastase dependant bacterial labelling in vitro.
# A first example of elastase sensitive probes (shown schematically in FIG. 2A) comprises methyl red (acting as a dark quencher) connected via the peptide sequence AAPV (acting as the linker) to 7-nitrobenz-2-oxa-1,3-diazole (NBD) and the ubiquicidin fragment UBI29-41 (together acting as the probe element). Accordingly, the NBD fluorescence is quenched by the methyl red and no fluorescent signal will be observed (i.e. the methyl red and NBD are acting as a FRET pair) and therefore, whether or not the probe is bound to any bacteria that may be present in the target area via UBI29-41, no signal is observed using confocal microscopy.
# When the probe is in the presence of human neutrophil elastase (HNE), such as in inflamed tissue, HNE cleaves the peptide sequence of the linker, to thereby free the probe element from the methyl red quencher. Accordingly, the NBD fluorophore is no longer quenched and produces a fluorescent signal. In addition, due to the environmental sensitivity of the NBD, the signal produced is greatly amplified if the NBD is in a hydrophobic environment, such as within a cell membrane.
# [2] = Stability in saline or BALF from patients with Acute Lung Injury (MALDI-TOF / FTMS); details: incubated for 30 minutes
# Method: FIG. 16: NBD-UBIdend is stable in ALI BALF. […] NBD-PMX is stable in ALI BALF.
# Secondly we assessed stability of the probes in broncholalveolar lavage fluid (BALF) from patients with Acute Lung Injury (ALI) by Fourier Transform Mass Spectrometry (FTMS) and Matrix-Assisted Laser Desorption/Ionization Time-of-Flight Mass Spectrometry (MALDI-TOF MS) analysis. NBD-UBINle, NBD-UBIdend and NBD-PMX were incubated for 30 minutes with BALF (FIG. 16).
# In vitro labelling was assessed on benchtop confocal in the presence of compound with bacteria and labelling was compared to NBD-UBINle which served as a reference control for bacterial labelling. […] For the ex vivo and in vivo ovine lung experiments each compound was assessed in a control lung segment (instilled with 2 ml PBS) or a bacterial segment (instilled with 2 ml of 2 optical density of bacteria). Following bacterial instillation, the compound was administered to the segment of interest and this was imaged by probe based confocal laser endomicroscopy (FCFM).
# Probe was added to saline or pooled BALF from patients with ALI incubated for 30 minutes. A ZipTip (C-18, 0.2 μL) with 5 μL MeCN (with 0.1% TFA as an additive) followed by 20 μL of H2O was washed. The ZipTip was loaded with the sample, washed and eluted into 5 μL of 80% aq. MeCN (with 0.1% TFA as an additive). The sample was analysed by MALDI-TOF (PerSeptive Biosystems Voyager DETMSTR MALDI-TOF mass spectrometer (Applied Biosystems, Foster City, Calif.)).
# [3] = Rodent single dose intratracheal toxicity assessment; format: in vivo, Mice; design: Creatinine / Bilirubin / Albumin: unit not given here
# human erythrocytes = assay: Haemolysis assay; details: up to 100 μM; 0.2% Triton-X = 100%
# Method: Positive control was 0.2% Triton-X and values corrected to represent 100% haemolysis for Triton-X.
# Erythrocytes were isolated from freshly drawn, anticoagulated human blood and resuspended to 20 vol % in PBS (pH 7.4). In a 96-well microtiter plate, 100 μl of erythrocyte suspension was added to 100 μl of NLLP solution in PBS (prepared by 1:2 serial dilutions) or 100 μl of PBS in the case of negative controls. One-hundred percent haemolysis wells contained 100 μl of red cell suspension with 100 μl of 0.2 vol % Triton X-100. The plate was incubated for 1 h at 37° C., and then each well was diluted with 150 μl of PBS. The plate was then centrifuged at 1,200 g for 15 min, 100 μl of the supernatant from each well was transferred to a fresh microtiter plate, and A350 was measured. Percentage of haemolysis was determined as (A−A0)/(Atotal−A0)×100, where A is the absorbance of the test well, A0 the absorbance of the negative controls, and Atotal the absorbance of 100% haemolysis wells, all at 350 nm on a Biotek plate reader.
# elastase = elastase (Homo sapiens, UniProt P08246); details: ex 525, Em 580
# activated neutrophils = details: TAMRA signal (red)
# Source text: (§1) FIG. 3A: Elastase dependant bacterial labelling scheme. The fluorophore on the bacterial binding component is quenched by a different fluorophore of a longer wavelength meaning that no fluorescence is seen upon binding to bacteria. Cleavage of the elastase specific sequence AAPV liberates the bacterial binding component (PV-NBD-UBI) from the quencher (TAMRA). TAMRA reports the presence of activated neutrophils by endocytic uptake.
# (§2) FIG. 3B: Elastase dependant bacterial labelling in vitro.
# [4] = tested on: Pseudomonas aueriginosa (PA)
# Source text: as §1, §2
# In a second example, the probe comprises carboxytetramethylrhodamine (TAMRA, acting as a fluorescent quencher) connected to NBD and polymyxin (acting as the probe element) via the peptide sequence AAPV (acting as the linker). Accordingly, the NBD fluorescence is quenched by the TAMRA to give rise to a fluorescent signal from TAMRA (i.e. the TAMRA is accepting the energy absorbed by the NBD and is itself fluorescing, TAMRA and NBD are acting as a FRET pair). Accordingly, whether or not the polymyxin has bound to any bacteria that may be present, only a signal from the TAMRA is observed.
# Chain of elastase (P08246 30-247 limits assumed): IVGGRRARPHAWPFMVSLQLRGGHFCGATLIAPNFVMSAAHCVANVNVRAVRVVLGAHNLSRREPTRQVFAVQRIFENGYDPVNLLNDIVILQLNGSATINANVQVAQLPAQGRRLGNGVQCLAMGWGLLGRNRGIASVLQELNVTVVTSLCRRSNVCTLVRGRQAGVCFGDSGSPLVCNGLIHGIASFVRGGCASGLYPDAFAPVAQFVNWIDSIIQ
smiles,measurement,setting,value
CSCCC(NC(=O)C(CCCNC(=N)N)NC(=O)C(CCCNC(=N)N)NC(=O)C(CCCCN)NC(=O)C(C)NC(=O)C(CCCNC(=N)N)NC(=O)CNC(=O)C(NC(=O)COCCOCCNC(=O)C(CCCCNc1ccc([N+](=O)[O-])c2nonc12)NC(=O)C(NC(=O)C1CCCN1C(=O)C(C)NC(=O)C(C)NC(=O)c1ccccc1/N=N/c1ccc(N(C)C)cc1)C(C)C)C(C)O)C(=O)NC(CCC(N)=O)C(=O)NC(Cc1ccc(O)cc1)C(=O)NC(CC(N)=O)C(=O)NC(CCCNC(=N)N)C(=O)NC(CCCNC(=N)N)C(N)=O (centres unmarked) [Example 1] (MethylRed-AAPVK(NBD)[AEEA]TGRAKRRMQYNRR-NH2; configuration not given here),bacterial labelling in co-culture of bacteria and neutrophils,"[1]; confocal, neutrophil derived HNE present",ability of the probe to be cleaved by neutrophil derived HNE and to label bacteria
same,bacterial labelling with elastase inhibitor,[1]; elastase inhibitor sivelestat added to the medium,no labelling was observed
CCCC[C@H](NC(=O)[C@H](CCCNC(=N)N)NC(=O)[C@H](CCCNC(=N)N)NC(=O)[C@H](CCCCN)NC(=O)[C@H](C)NC(=O)[C@H](CCCNC(=N)N)NC(=O)CNC(=O)[C@@H](NC(=O)COCCOCCNc1ccc([N+](=O)[O-])c2nonc12)[C@@H](C)O)C(=O)N[C@@H](CCC(N)=O)C(=O)N[C@@H](Cc1ccc(O)cc1)C(=O)N[C@@H](CC(N)=O)C(=O)N[C@@H](CCCNC(=N)N)C(=O)N[C@@H](CCCNC(=N)N)C(=O)NCCOCCOCC(=O)NCCCOCC(COCCCNC(=O)COCCOCCNC(=O)[C@H](CCCNC(=N)N)NC(=O)[C@H](CCCNC(=N)N)NC(=O)[C@H](CC(N)=O)NC(=O)[C@H](Cc1ccc(O)cc1)NC(=O)[C@H](CCC(N)=O)NC(=O)[C@H](CCCC)NC(=O)[C@H](CCCNC(=N)N)NC(=O)[C@H](CCCNC(=N)N)NC(=O)[C@H](CCCCN)NC(=O)[C@H](C)NC(=O)[C@H](CCCNC(=N)N)NC(=O)CNC(=O)[C@@H](NC(=O)COCCOCCNc1ccc([N+](=O)[O-])c2nonc12)[C@@H](C)O)(COCCCNC(=O)COCCOCCNC(=O)[C@H](CCCNC(=N)N)NC(=O)[C@H](CCCNC(=N)N)NC(=O)[C@H](CC(N)=O)NC(=O)[C@H](Cc1ccc(O)cc1)NC(=O)[C@H](CCC(N)=O)NC(=O)[C@H](CCCC)NC(=O)[C@H](CCCNC(=N)N)NC(=O)[C@H](CCCNC(=N)N)NC(=O)[C@H](CCCCN)NC(=O)[C@H](C)NC(=O)[C@H](CCCNC(=N)N)NC(=O)CNC(=O)[C@@H](NC(=O)COCCOCCNc1ccc([N+](=O)[O-])c2nonc12)[C@@H](C)O)NC(N)=O (some centres unmarked) [NBD-UBIdend],stability in ALI BALF,[2],demonstrate stability
same,stability in saline,[2],readily identified in both saline and BALF incubated samples
same,ALP,[3]; 48 hours,222.3 ± 80.3 u/l
same,ALT,[3]; 48 hours,24.0 ± 1.2 u/l
same,Albumin,[3]; 48 hours,22.3 ± 1.8
same,BALF,[3]; 48 hours,477.1 ± 150.6 Cells/ul
same,Bilirubin,[3]; 48 hours,2 ± 0
same,Creatinine,[3]; 48 hours,8.3 ± 0.7
same,Cytospin (% of Neutrophils),[3]; 48 hours,3.6%
same,Cytospin (% of Red Blood Cells),[3]; 48 hours,0%
same,PenH value,[3]; 48 hours,0.5 ± 0.06
same,Cytospin (% of Mononuclear cells),"[3]; 48 hours, single intratracheal 100 μg/25 g mouse",96.4%
same,ALP,[3]; 14 days,227.0 ± 27.1 u/l
same,ALT,[3]; 14 days,28.3 ± 1.9 u/l
same,Albumin,[3]; 14 days,25.0 ± 1.2
same,BALF,[3]; 14 days,342.7 ± 6.5 Cells/ul
same,Bilirubin,[3]; 14 days,2 ± 0
same,Creatinine,[3]; 14 days,9.0 ± 1.5
same,Cytospin (% of Neutrophils),[3]; 14 days,0%
same,Cytospin (% of Red Blood Cells),[3]; 14 days,0%
same,PenH value,[3]; 14 days,0.5 ± 0.04
same,Cytospin (% of Mononuclear cells),"[3]; 14 days, single intratracheal 100 μg/25 g mouse",100%
same,organ toxicity (histology),"[3]; single instillation, 48 hours and 14 days, compared to PBS control",no organ toxicity
same,toxicity,"[3]; single intratracheal 100 μg/25 g mouse, 48 hours and 14 days",no toxicity
same,red cell haemolysis,human erythrocytes,no red cell haemolysis
CC(C)C[C@@H]1NC(=O)[C@@H](Cc2ccccc2)NC(=O)[C@@H](CCN)NC(=O)C(NC(=O)[C@H](CCN)NC(=O)[C@@H](NC(=O)COCCOCCNC(=O)C(CCCCNc2ccc([N+](=O)[O-])c3nonc23)NC(=O)C(NC(=O)C2CCCN2C(=O)C(C)NC(=O)C(C)NC(=O)c2ccc3c(c2)C2(OC3=O)c3ccc(N(C)C)cc3Oc3cc(N(C)C)ccc32)C(C)C)[C@@H](C)O)CCNC(=O)[C@@H]([C@H](C)O)NC(=O)[C@H](CCN)NC(=O)[C@H](CCN)NC1=O (some centres unmarked) [TAMRA-AAPV-NBD-PMX] (X1-[ξA][ξA][ξP][ξV][ξK](NBD)[AEEA]T[Dab][ξDab][dDab][dF]L[Dab][Dab][dT]; lactam 9-C),"fluorescence of TAMRA following cleavage, with elastase inhibitor",elastase; elastase inhibitor,inhibited with an elastase inhibitor
same,fluorescence of TAMRA following cleavage,elastase; with elastase,increase in fluorescence of TAMRA-AA (cleaved compound) compared to TAMRA-AAPV-NBD-PMX in an elastase dependent manner
same,labelling of activated neutrophils,activated neutrophils,labelling of activated neutrophils (shown in red) in an elastase independent manner
same,bacterial labelling,"[4]; activated neutrophils, NBD signal (green)",bacterial labelling (shown in green) in an elastase dependent manner
same,bacterial labelling,[4]; unactivated neutrophils,no labelling in the presence of unactivated neutrophils
